According to US8642834B2, “Methods for the identification of agents that inhibit mesenchymal-like tumor cells or their formation” (OSI Pharmaceuticals, LLC, priority 2009, dated 2014):

Tests used:
CFPAC-1 cells = assay: Induction of EMT by growth factors and cytokines, E-cadherin and vimentin immunoblotting; assay type: cell-based, human; conditions: CFPAC-1 cells treated 7 days with ligand
Experimental: The CFPAC1 cell line was cultured in DMEM media (Gibco #11960) supplemented with 10% FBS (Sigma), 2 mM L Glutamine (Gibco), at 37° C., 5% CO2. For 7 day treatments, cells were seeded on tissue culture plastic in complete growth media and allowed to attach overnight at cell densities that would provide approximately 60-80% confluence at end of experiment. Ligand and/or inhibitor was added the following day (Day 0) in complete growth media and incubated at 37° C., 5% CO2. Ligand source and concentrations used are as follows: [1] From R&D systems, SDF-1α (stromal derived factor-1 alpha) at 100 ng/ml, TRANCE (TNF-related activation induced cytokine) at 50 ng/ml, FGF1 (fibroblast growth factor acidic) at 10 ng/ml, FGF2 (fibroblast growth factor basic) at 10 ng/ml, BMP4 (bone morphogenetic protein 4) at 100 ng/ml, BMP7 (bone morphogenetic protein 7) at 100 ng/ml, IGF2 (insulin-like growth factor 2) at 100 ng/ml, OSM (Oncostatin M) at 100 ng/ml, NRG1 (Neuregulin-1) at 50 ng/ml, PDGFaa (Platelet derived growth factor a) at 50 ng/ml, PDGFbb (platelet derive growth factor b) at 30 ng/ml, Ang2 (Angiopoeitin 2) at 400 ng/ml, amphiregulin at 100 ng/ml, HMGB 1 (Human high-mobility group box 1 protein) at 50 ng/ml; [2] From Genscript, LIF (Leukemia inhibitory factor) at 20 ng/ml, GM-CSF (Granulocyte macrophage colony stimulating factor) at 25 ng/ml, M-CSF (Macrophage colony stimulating factor) at 50 ng/ml; [3] From Anaspec, PAR1 (Protease activated receptor 1 agonist) at 100 μM; PAR2 (Protease activated receptor 2 agonist; peptide SLIGKV-NH2, Cat. No. 60217-1) at 100 μM; PAR4 (Protease activated receptor […] agonist; peptide AYPGKF-NH2, Cat. No. 60218-1) at 100 μM; [4] From Peprotech, HGF (Hepatocyte Growth Factor) at 100 ng/ml; IL-31 (Interleukin-31) at 50 ng/ml, IL-33 (Interleukin-33) at 50 ng/ml, IL1-a (Interleukin-1 alpha) at 10 ng/ml, CTGF (Connective tissue growth factor) at 20 ng/ml, WISP1 (Wnt-1 inducible signaling pathway protein) at 20 ng/ml, PTHrP ([…] hormone-related protein) at 50 ng/ml, MCP1 (monocyte chemotactic protein-1) at 50 ng/ml; and [5] from Sigma, Fulvestrant at 1 μM. Fresh medium containing ligand and/or inhibitor was added 3-4 days after initial dose, and at Day 7 cells were harvested for western blot analysis.
Cells were harvested by washing once with PBS, and lysing on ice for 10 minutes with scraping (using a Cell Lifter, Corning Inc. #3008) in ice cold RIPA buffer (Sigma R0278) containing Protease inhibitor (Sigma P8340), Phosphatase inhibitors (Sigma P2850, P5726) and 200 μM Sodium Vanadate. Supernatents were micro-centrifuged at max speed, 4° C. for 10 minutes. Protein content was quantitated using the BCA method (Pierce #23225) and samples were normalized to total protein in Laemli buffer and heated at 100° C. for 10 minutes. SDS PAGE was run using a Bis-Tris gel system (Invitrogen NuPAGE) with MOPS buffer (Invitrogen NP0001), transferred onto nitrocellulose using the iBLOT system (Invitrogen) and blocked in PBS-T (0.1% Tween 20), 5% non-fat milk or BSA in guidance with primary Ab supplier requirements. All primary antibodies were incubated overnight at 4° C. in PBS-T (0.1% Tween 20) in either 5% non-fat milk or BSA, diluted to the following working dilutions: anti E Cadherin (Santa Cruz #sc-21791) 1:500 dilution; anti Vimentin (BD Biosciences #550513) 1:2000 dilution;); anti GAPDH HRP conjugate (Santa Cruz sc-25778) 1:1000 dilution; anti β-Actin (Sigma, A5441) 1:10,000 dilution. […]

CFPAC1 cells = assay: 2D immunofluorescence of E-cadherin and vimentin; assay type: cell-based, human; conditions: cells treated 7 days with ligand, compared to untreated cells
Experimental: Cells were plated on coverslips and stimulated with ligand the following day (day 0). On day 4, medium and ligands were refreshed. After 7 days, the cells were fixed in 4% paraformaldehyde (EMS#15701)/PBS (Gibco #14190) for 10 minutes at room temperature, and then permeabilized in 0.1% Triton X-100 (Sigma #P1379)/PBS for 10 minutes. Cells were blocked in 3% BSA/PBS for one hour and incubated in primary antibody solution (E-cadherin, Santa Cruz #sc21791 and Vimentin, Chemicon #AB5733 in blocking buffer) for two hours at room temperature. Cells were washed in PBS and incubated in secondary antibody (Invitrogen #A11029 and Chemicon #AP194R) for one hour followed by nuclear counterstain TO-PRO3 (Invitrogen #T3605). Coverslips were mounted on slides with Pro-Long Gold antifade reagent (Invitrogen P36934). Images were captured on a Leica DMRXE microcope with SP2 scanner using Leica Confocal Software.

B1: OSM: Oncostatin M from R&D systems, used at 100 ng/ml (protein, UniProt P13725 26-221, looked up)
Oncostatin-M: AAIGSCSKEYRVLLGQLQKQTDLMQDTSRLLDPYIRIQGLDVPKLREHCRERPGAFPSEETLRGLGRRGFLQTLNATLGCVLHRLADLEQRLPKAQDLERSGLNIEDLEKLQMARPNILGLRNNIYCMAQLLDNSDTAEPTKAGRGASQPPTPTPASDAFQRKLEGCRFLHGYHRFMHSVGRVFSKWGESPNRSRR
For B1, the “Induction of EMT (E-cadherin down, vimentin up)” value (CFPAC-1 cells) was “most complete EMT” and the “E-cadherin and vimentin staining” value (CFPAC1 cells) was “strong vimentin staining with no E-cadherin”.
